Results as given in patent US20240182536A1 (MURAL ONCOLOGY, published 2024).
Where two headings read alike, the source gives them in different places.

B1: yeast display IL-18 variant K53S, S55K (ligand)
chain: YFGKLESKLSVIRNLNDQVLFIDQGNRPLFEDMTDSDMRDNAPRTIFIISMYSDKQPRGMAVTISVKSEKISTLSSENKIISFKEMNPPDNIKDTKSDIIFFQRSVPGHDNKMQFESSSYEGYFLASEKERDLFKLILKKEDELGDRSIMFTVQNED
B2: IL-18 variant S36F, N41E, K53W (ligand)
chain: YFGKLESKLSVIRNLNDQVLFIDQGNRPLFEDMTDFDMRDEAPRTIFIISMYWDSQPRGMAVTISVKSEKISTLSSENKIISFKEMNPPDNIKDTKSDIIFFQRSVPGHDNKMQFESSSYEGYFLASEKERDLFKLILKKEDELGDRSIMFTVQNED
B3: IL-18 variant T34N, S36N, D40E, N41G, K53S, S55Q, R104N, H109Y (ligand)
chain: YFGKLESKLSVIRNLNDQVLFIDQGNRPLFEDMNDNDMREGAPRTIFIISMYSDQQPRGMAVTISVKSEKISTLSSENKIISFKEMNPPDNIKDTKSDIIFFQNSVPGYDNKMQFESSSYEGYFLASEKERDLFKLILKKEDELGDRSIMFTVQNED
B4: yeast display IL-18 variant K53T, S55P (ligand)
chain: YFGKLESKLSVIRNLNDQVLFIDQGNRPLFEDMTDSDMRDNAPRTIFIISMYTDPQPRGMAVTISVKSEKISTLSSENKIISFKEMNPPDNIKDTKSDIIFFQRSVPGHDNKMQFESSSYEGYFLASEKERDLFKLILKKEDELGDRSIMFTVQNED
B5: yeast display IL-18 variant S36E, D37E, D40K, N41T, K53T, S55Q, R104H (ligand)
chain: YFGKLESKLSVIRNLNDQVLFIDQGNRPLFEDMTDEEMRKTAPRTIFIISMYTDQQPRGMAVTISVKSEKISTLSSENKIISFKEMNPPDNIKDTKSDIIFFQHSVPGHDNKMQFESSSYEGYFLASEKERDLFKLILKKEDELGDRSIMFTVQNED
B6: yeast display IL-18 variant K53S, S55G (ligand)
chain: YFGKLESKLSVIRNLNDQVLFIDQGNRPLFEDMTDSDMRDNAPRTIFIISMYSDGQPRGMAVTISVKSEKISTLSSENKIISFKEMNPPDNIKDTKSDIIFFQRSVPGHDNKMQFESSSYEGYFLASEKERDLFKLILKKEDELGDRSIMFTVQNED
B7: IL-18 variant T34S, S36Y, D37N, D40E, N41Q, K53Y, S55I (ligand)
chain: YFGKLESKLSVIRNLNDQVLFIDQGNRPLFEDMSDYNMREQAPRTIFIISMYYDIQPRGMAVTISVKSEKISTLSSENKIISFKEMNPPDNIKDTKSDIIFFQRSVPGHDNKMQFESSSYEGYFLASEKERDLFKLILKKEDELGDRSIMFTVQNED
B8: yeast display IL-18 variant K53T, S55M, R58K (ligand)
chain: YFGKLESKLSVIRNLNDQVLFIDQGNRPLFEDMTDSDMRDNAPRTIFIISMYTDMQPKGMAVTISVKSEKISTLSSENKIISFKEMNPPDNIKDTKSDIIFFQRSVPGHDNKMQFESSSYEGYFLASEKERDLFKLILKKEDELGDRSIMFTVQNED
B9: yeast display IL-18 variant K53T, S55A (ligand)
chain: YFGKLESKLSVIRNLNDQVLFIDQGNRPLFEDMTDSDMRDNAPRTIFIISMYTDAQPRGMAVTISVKSEKISTLSSENKIISFKEMNPPDNIKDTKSDIIFFQRSVPGHDNKMQFESSSYEGYFLASEKERDLFKLILKKEDELGDRSIMFTVQNED
B10: yeast display IL-18 variant K53S, S55Y (ligand)
chain: YFGKLESKLSVIRNLNDQVLFIDQGNRPLFEDMTDSDMRDNAPRTIFIISMYSDYQPRGMAVTISVKSEKISTLSSENKIISFKEMNPPDNIKDTKSDIIFFQRSVPGHDNKMQFESSSYEGYFLASEKERDLFKLILKKEDELGDRSIMFTVQNED

How the values were obtained:
Test in all cases: cell-based or functional assay
[1] = target: T1, human IL-18 binding protein (human, UniProt O95998 31-194)
T1 sequence (looked up): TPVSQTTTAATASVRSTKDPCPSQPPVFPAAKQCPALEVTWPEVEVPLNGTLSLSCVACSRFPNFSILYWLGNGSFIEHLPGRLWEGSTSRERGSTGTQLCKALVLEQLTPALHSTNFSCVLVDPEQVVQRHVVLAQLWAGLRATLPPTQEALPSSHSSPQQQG

[2] = target: T2, IL-18 receptors on HEK-Blue IL-18 reporter cells (UniProt Q13478 19-541; O95256 20-599, limits assumed)
T2 sequence (looked up) 1: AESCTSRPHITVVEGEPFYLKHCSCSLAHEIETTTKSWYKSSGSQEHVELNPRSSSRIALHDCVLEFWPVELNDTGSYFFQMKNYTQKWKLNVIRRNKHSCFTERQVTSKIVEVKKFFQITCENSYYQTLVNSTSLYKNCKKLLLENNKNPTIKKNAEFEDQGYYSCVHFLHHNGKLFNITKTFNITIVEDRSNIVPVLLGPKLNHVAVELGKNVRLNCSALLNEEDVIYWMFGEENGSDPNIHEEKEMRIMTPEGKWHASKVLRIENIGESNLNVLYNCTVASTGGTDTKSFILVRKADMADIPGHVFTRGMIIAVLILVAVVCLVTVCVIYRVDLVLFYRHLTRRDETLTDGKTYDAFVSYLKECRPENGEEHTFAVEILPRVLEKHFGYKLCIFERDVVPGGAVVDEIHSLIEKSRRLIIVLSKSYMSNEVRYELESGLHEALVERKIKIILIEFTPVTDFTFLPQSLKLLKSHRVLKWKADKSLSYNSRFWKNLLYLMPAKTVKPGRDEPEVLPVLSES
T2 sequence (looked up) 2: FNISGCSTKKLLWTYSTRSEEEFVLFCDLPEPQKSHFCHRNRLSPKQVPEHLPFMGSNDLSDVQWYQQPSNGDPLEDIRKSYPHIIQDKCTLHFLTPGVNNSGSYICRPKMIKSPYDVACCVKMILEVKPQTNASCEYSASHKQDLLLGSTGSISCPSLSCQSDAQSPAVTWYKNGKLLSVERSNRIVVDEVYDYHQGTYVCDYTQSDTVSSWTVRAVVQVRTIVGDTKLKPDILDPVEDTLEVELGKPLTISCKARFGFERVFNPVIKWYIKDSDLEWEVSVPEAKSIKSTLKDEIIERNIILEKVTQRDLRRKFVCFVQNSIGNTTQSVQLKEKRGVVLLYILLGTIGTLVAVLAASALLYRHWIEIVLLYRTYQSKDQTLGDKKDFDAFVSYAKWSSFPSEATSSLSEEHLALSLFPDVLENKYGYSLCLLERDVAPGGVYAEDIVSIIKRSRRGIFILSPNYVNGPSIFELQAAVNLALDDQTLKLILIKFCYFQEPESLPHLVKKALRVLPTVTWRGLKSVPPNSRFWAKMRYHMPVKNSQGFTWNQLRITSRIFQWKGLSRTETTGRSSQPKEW

[3] = target: T3, interleukin 18 binding protein (IL-18BP) (UniProt O95998 31-194)
T3 sequence (looked up): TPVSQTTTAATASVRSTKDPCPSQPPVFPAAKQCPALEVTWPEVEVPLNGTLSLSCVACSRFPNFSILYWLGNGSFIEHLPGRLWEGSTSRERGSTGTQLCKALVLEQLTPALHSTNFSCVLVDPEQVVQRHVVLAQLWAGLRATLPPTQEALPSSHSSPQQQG

[4] = target: T4, IL-18 receptors on HEK-Blue IL-18 reporter cells (UniProt Q13478 19-541; O95256 20-599, limits assumed); remark: listed apart in the source
T4 sequence (looked up) 1: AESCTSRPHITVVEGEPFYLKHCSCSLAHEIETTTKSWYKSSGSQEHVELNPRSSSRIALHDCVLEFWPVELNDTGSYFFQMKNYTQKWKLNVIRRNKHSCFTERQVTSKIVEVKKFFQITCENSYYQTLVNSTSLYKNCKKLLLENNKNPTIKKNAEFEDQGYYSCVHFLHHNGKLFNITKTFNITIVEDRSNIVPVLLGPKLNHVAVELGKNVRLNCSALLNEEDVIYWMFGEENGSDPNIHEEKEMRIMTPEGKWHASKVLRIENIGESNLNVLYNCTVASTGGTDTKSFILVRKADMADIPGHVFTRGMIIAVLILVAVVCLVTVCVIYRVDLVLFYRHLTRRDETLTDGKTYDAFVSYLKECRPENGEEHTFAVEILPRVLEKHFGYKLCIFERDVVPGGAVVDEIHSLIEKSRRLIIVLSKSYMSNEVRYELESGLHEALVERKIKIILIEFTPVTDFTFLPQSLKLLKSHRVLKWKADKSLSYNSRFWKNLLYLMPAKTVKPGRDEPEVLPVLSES
T4 sequence (looked up) 2: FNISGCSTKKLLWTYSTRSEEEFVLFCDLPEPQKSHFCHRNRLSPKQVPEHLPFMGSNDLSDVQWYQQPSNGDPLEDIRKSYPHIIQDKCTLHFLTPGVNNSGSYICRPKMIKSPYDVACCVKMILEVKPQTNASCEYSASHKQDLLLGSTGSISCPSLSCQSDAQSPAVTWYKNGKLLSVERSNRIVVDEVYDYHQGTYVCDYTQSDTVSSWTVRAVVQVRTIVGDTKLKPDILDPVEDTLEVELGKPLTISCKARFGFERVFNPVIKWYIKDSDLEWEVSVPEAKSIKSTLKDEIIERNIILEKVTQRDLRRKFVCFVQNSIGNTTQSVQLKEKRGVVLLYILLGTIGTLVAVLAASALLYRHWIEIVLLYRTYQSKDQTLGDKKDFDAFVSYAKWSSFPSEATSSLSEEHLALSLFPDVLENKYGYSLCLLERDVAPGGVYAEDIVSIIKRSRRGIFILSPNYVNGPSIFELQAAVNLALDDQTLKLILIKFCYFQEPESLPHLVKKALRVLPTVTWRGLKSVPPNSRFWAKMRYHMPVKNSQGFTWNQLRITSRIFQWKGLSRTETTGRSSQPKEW

Binder | HEK-Blue activity, +100 nM BP, DF-10000 [1] | HEK-Blue activity, +100 nM BP, DF-100,000 [1] | HEK-Blue activity, +100 nM BP, DF-1,000,000 [1] | Ratio (-BP/+BP), DF-10000 [1] | Ratio (-BP/+BP), DF-100,000 [1] | Ratio (-BP/+BP), DF-1,000,000 [1] | HEK-Blue activity, No BP, DF-10000 [2] | HEK-Blue activity, No BP, DF-100,000 [2] | HEK-Blue activity, No BP, DF-1,000,000 [2] | HEK-Blue activity, +100 nM BP, DF-10000 [3] | HEK-Blue activity, +100 nM BP, DF-100,000 [3] | HEK-Blue activity, +100 nM BP, DF-1,000,000 [3] | Ratio (-BP/+BP), DF-10000 [3] | Ratio (-BP/+BP), DF-100,000 [3] | Ratio (-BP/+BP), DF-1,000,000 [3] | HEK-Blue activity, No BP, DF-10000 [4] | HEK-Blue activity, No BP, DF-100,000 [4] | HEK-Blue activity, No BP, DF-1,000,000 [4]
B1 | 2.03 | 1.41 | 0.53 | 0.98 | 0.96 | 0.95 | 2 | 1.35 | 0.5 |  |  |  |  |  |  |  |  | 
B2 |  |  |  |  |  |  |  |  |  | 0.09 | 0.1 | 0.09 | 1 | 1.01 | 0.91 | 0.09 | 0.1 | 0.09
B3 |  |  |  |  |  |  |  |  |  | 0.09 | 0.09 | 0.09 | 0.95 | 1.01 | 0.95 | 0.09 | 0.09 | 0.08
B4 | 1.53 | 0.65 | 0.21 | 0.93 | 0.91 | 0.79 | 1.42 | 0.59 | 0.16 |  |  |  |  |  |  |  |  | 
B5 | 0.81 | 0.21 | 0.14 | 1 | 1.01 | 1.22 | 0.81 | 0.22 | 0.17 |  |  |  |  |  |  |  |  | 
B6 | 1.83 | 0.97 | 0.27 | 0.93 | 0.95 | 1.1 | 1.71 | 0.91 | 0.3 |  |  |  |  |  |  |  |  | 
B7 |  |  |  |  |  |  |  |  |  | 0.09 | 0.09 | 0.12 | 0.98 | 0.96 | 0.75 | 0.09 | 0.09 | 0.09
B8 | 0.72 | 0.21 | 0.17 | 1.08 | 0.92 | 0.72 | 0.78 | 0.2 | 0.12 |  |  |  |  |  |  |  |  | 
B9 | 1.85 | 0.95 | 0.32 | 0.97 | 1 | 0.89 | 1.8 | 0.96 | 0.29 |  |  |  |  |  |  |  |  | 
B10 | 1.52 | 0.55 | 0.21 | 0.93 | 0.97 | 0.9 | 1.41 | 0.54 | 0.19 |  |  |  |  |  |  |  |  | 
